Measurements reported in PMC5688852.

Target: T1, TTP-2D (tristetraprolin, both CCCH zinc fingers) (UniProt P22893)
T1 sequence: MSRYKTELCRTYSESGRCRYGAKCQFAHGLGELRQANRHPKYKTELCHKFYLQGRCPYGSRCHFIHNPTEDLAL
Assay: fluorescence anisotropy

## UUUAUUUAUUU (ssRNA) [UUUAUUUAUUU-F (AU-rich element)]
  binding result: binds
